Square brackets hold non-standard residues; d marks the D form. pS = N[C@@H](COP(=O)(O)O)C(=O)O
B1: peptide 7 (peptide)
peptide: Ac-LSRRP[pS]YRKILNDLSSDAP-NH2
B2: peptide 7′ (peptide)
peptide: Ac-LKRRP[pS]YRKILNDLSSDAP-NH2

Experiments:
[1] = target: KIX domain of CREB-binding protein (CBP) (UniProt P45481 588-672); experiment: fluorescence polarisation
[2] = target: MBP-KIX-apoferritin construct 3 (24-mer double-shell complex) (not stated | mouse); experiment: fluorescence polarisation

KIX domain of CREB-binding protein (CBP), sequence (P45481 588-672): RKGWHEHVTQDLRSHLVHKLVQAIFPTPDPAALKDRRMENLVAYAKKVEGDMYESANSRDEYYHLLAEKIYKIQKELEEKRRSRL

Binder | IC50 [1] | IC50 [2]
B1 | 50 µM | 311 µM
B2 | 24.2 µM | 170 µM

— paper PMC8875425 (ACS Central Science, 2022)
